Experimental data as given in patent US5374506A, “Amino acid sequence for a functional human interleukin-8 receptor” (The United States of America as represented by the …, priority 1991, dated 1994).

How the values were obtained:
[1] = tested on: oocytes injected with 50 ng of HL60 neutrophil RNA; experiment: calcium efflux assay in oocytes injected with HL60 neutrophil RNA; format: cell-based, Xenopus; details: oocytes injected with 50 ng HL60 neutrophil RNA
Method: (§1) The materials and methods used for the calcium efflux assay were as described in P. M. Murphy, E. K. Gallin, H. L. Tiffany, J. Immunol. […] Oocytes were microinjected with RNA samples in a total volume of 50 nl per oocyte 3 days after harvesting and were then incubated at 20° to 23° C. for 2 to 4 days. Oocytes were then incubated with ^45 Ca^2+ [50 μCi/ml (ICN Biomedicals, Costa Mesa, Calif.)] for 3 hours. After ten washes with medium, individual oocytes were stimulated with ligand in wells of a 96-well tissue culture plate containing 100 μl of medium. Three 100 μl samples of the incubation medium were collected and analyzed by liquid scintillation counting: a) the final 100 μl wash (20 min) before application of ligand; b) fluid containing the stimulus, removed after a 20 min incubation with the oocyte; and c) the oocyte solubilized in SDS (1%) in medium 20 min after stimulation. Data are presented as the mean±standard error of the mean (SEM) of the percent of loaded ^45 Ca^2+ that was released by individual oocytes in response to the stimulus, or [(b-a).div.(b+c)]×100. FMLP and recombinant human C5a was from Sigma, St. Louis, Mo. Recombinant human IL-8 was from Genzyme, Boston, Mass. Recombinant human NAP-2 was from Bachem, Philadelphia, Pa.

[2] = biological target: T1, human IL-8 receptor (Homo sapiens, UniProt P25025); experiment: calcium efflux assay in Xenopus oocytes injected with p2 cRNA; format: cell-based; details: for calcium mobilization / activation of the IL-8 receptor (result in words): FIG. 2C; for rank order of potency for activating calcium flux: IL-8 receptor expressed by Xenopus oocytes, FIG. 2(C)
T1 construct: expressed in transfected cells; host or cells: Xenopus oocytes injected with p2 cRNA
T1 sequence (P25025 6-360): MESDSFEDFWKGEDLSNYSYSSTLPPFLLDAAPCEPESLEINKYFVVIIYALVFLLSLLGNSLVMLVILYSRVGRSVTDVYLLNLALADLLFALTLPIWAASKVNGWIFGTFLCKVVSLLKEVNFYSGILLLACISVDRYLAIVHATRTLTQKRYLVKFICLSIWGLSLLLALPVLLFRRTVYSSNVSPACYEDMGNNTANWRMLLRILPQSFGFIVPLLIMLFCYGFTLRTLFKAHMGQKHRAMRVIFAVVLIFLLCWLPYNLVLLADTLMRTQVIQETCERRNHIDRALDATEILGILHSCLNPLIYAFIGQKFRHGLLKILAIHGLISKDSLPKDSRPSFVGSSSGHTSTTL
Method: as §1

[3] = tested on: receptor encoded by p2; experiment: binding of 125I-labeled IL-8 and gro to COS cells transiently transfected with pCDNAI-p2; parameters: species or system human; details: receptor encoded by p2 expressed in COS cells
Method: To further support the data obtained from the oocyte studies, the p2 cDNA was also cloned into the vector pCDNAI. When COS cells are transiently transfected with the pCDNAI-p2 construct, specific binding sites were detected with ^125 I-labeled IL-8 and gro protein. In contrast to the ligand binding affinity in the oocyte environment, the affinity for the ligand when the receptor encoded by p2 was expressed in the COS cell was higher. Specifically, the kd for IL-8 was 2 nM and the kd for gro was 1.3 nM.

[4] = biological target: human interleukin-8 receptor encoded by cDNA clone p2 (human)
[5] = biological target: T1, human IL-8 receptor; experiment: binding of [125I]-IL-8 to oocytes injected with p2 cRNA; details: 1 μM competitor
Method: Total ( ) and non-specific binding (.largecircle.) was determined by incubating oocytes injected with p2 cRNA with the indicated concentration of radioligand in the absence or presence of unlabeled IL-8 (1 μM), respectively. The data shown are the mean±SEM of triplicate determinations per point and are representative of two separate experiments. Nonspecific binding was subtracted from total binding to determine specific binding (.quadrature.). […] Specific binding of [^125 I]-IL-8 by oocytes injected with water was undetectable.
IL-8 was iodinated to a specific activity of 260 Ci/mmole as described in H. L. Malech, J. P. Gardner, D. F. Heiman, S. A. Rosenzweig, J. Biol. Chem. 260, 2509 (1985). The radioligand was qualified by binding to human neutrophils. Single oocytes were incubated with [^125 I]-IL-8 for 30 min on ice in 10 μl binding buffer (Hanks balanced salt solution with 25 mM HEPES, 1% bovine serum albumin, pH 7.4). Unbound ligand was removed by pelleting the oocyte through 300 μl F50 silicone fluid (General Electric, Waterford, N.Y.). The tube was quick-frozen and gamma emissions from the amputated tips were counted.

[6] = biological target: gro (melanoma growth-stimulatory activity) (Homo sapiens (Human), UniProt P09341, 125I label in the COS cell binding experiment); experiment: binding of 125I-labeled gro to COS cells transiently transfected with pCDNAI-p2
[7] = biological target: recombinant human IL-8 (human, UniProt P10145, 125I label in the binding experiments); experiment: binding of 125I-labeled IL-8 to COS cells transiently transfected with pCDNAI-p2
[8] = biological target: recombinant human C5a (human, UniProt P01031); experiment: displacement of [125I]-IL-8 from Xenopus oocytes injected with p2 cRNA
[9] = Xenopus oocytes injected with p2 cRNA

## CSCC[C@H](NC=O)C(=O)N[C@@H](CC(C)C)C(=O)N[C@@H](Cc1ccccc1)C(=O)O [FMLP, N-formyl methionyl-leucylphenylalanine, reference compound]
[1]; 1 μM ligand
  calcium efflux response (percent of loaded 45Ca2+ released): 51±3%
[2]; [9]
  calcium mobilization / activation of the IL-8 receptor (result in words): did not respond

## IL-8: inflammatory cytokine, potent chemoattractant for neutrophils; recombinant human IL-8 from Genzyme
[3]
  Kd: 2 nM
[2]
  rank order of potency for activating calcium flux: IL-8>gro>NAP-2
[2]; Xenopus oocytes injected with p2 cRNA, FIG. 2A, read-out: EC50 of intracellular calcium mobilization
  EC50: 20 nM
[2]; oocyte EC50 higher than that reported for human neutrophils with recombinant human IL-8
  EC50 in oocytes relative to value reported for human neutrophils: approximately 20 fold

## gro: member of the macrophage inflammatory protein-2 (MIP-2) family of cytokines, structurally related to IL-8
[3]
  Kd: 1.3 nM
[2]
  rank order of potency for activating calcium flux: IL-8>gro>NAP-2

## recombinant human IL-8 (from UniProt P10145) (ligand)
[4]
  calcium efflux (mobilization of intracellular calcium), EC50: 20 nM

B1: NAP-2: member of the MIP-2 family of cytokines; recombinant human NAP-2 from Bachem (protein)
chain: AELRCMCIKTTSGIHPKNIQSLEVIGKGTHCNQVEVIATLKDGRKICLDPDAPRIKKIVQKKLAGDESAD
[2]
  rank order of potency for activating calcium flux: IL-8>gro>NAP-2

B2: C5a: structurally unrelated chemoattractant, 74 amino acids; recombinant human C5a from Sigma (protein)
chain: TLQKKIEEIAAKYKHSVVKKCCYDGACVNNDETCEQRAARISLGPRCIKAFTECCVVASQLRANISHKDMQLGR
[5]
  displacement of [125I]-IL-8: did not displace
[1]; 500 nM ligand
  calcium efflux response (percent of loaded 45Ca2+ released): 16±5%
[2]; [9]
  calcium mobilization / activation of the IL-8 receptor (result in words): did not activate

B3: human interleukin-8 receptor encoded by cDNA clone p2 (receptor)
chain: MESDSFEDFWKGEDLSNYSYSSTLPPFLLDAAPCEPESLEINKYFVVIIYALVFLLSLLGNSLVMLVILYSRVGRSVTDVYLLNLALADLLFALTLPIWAASKVNGWIFGTFLCKVVSLLKEVNFYSGILLLACISVDRYLAIVHATRTLTQKRYLVKFICLSIWGLSLLLALPVLLFRRTVYSSNVSPACYEDMGNNTANWRMLLRILPQSFGFIVPLLIMLFCYGFTLRTLFKAHMGQKHRAMRVIFAVVLIFLLCWLPYNLVLLADTLMRTQVIQETCERRNHIDRALDATEILGILHSCLNPLIYAFIGQKFRHGLLKILAIHGLISKDSLPKDSRPSFVGSSSGHTSTTL
[6]
  Kd: 1.3 nM
[7]
  Kd: 2 nM
[8]
  binding result: no binding (tested: 1 µM)
